Legend:
Experiment in all cases: cell-based or functional assay
[1] = target: Env of the clade AE HIV-1 pseudoviruses of the cross-clade 162-pseudovirus panel (n = 10)
[2] = target: HIV-1 92BR020 envelope glycoprotein (Env) (HIV-1)
[3] = target: HIV-1 92RW020 envelope glycoprotein (Env) (HIV-1)
[4] = target: HIV-1 93IN905 envelope glycoprotein (Env) (HIV-1)
[5] = target: HIV-1 93UG077 envelope glycoprotein (Env) (HIV-1)
[6] = target: HIV-1 APV13 envelope glycoprotein (Env) (HIV-1)
[7] = target: HIV-1 APV17 envelope glycoprotein (Env) (HIV-1)
[8] = target: HIV-1 APV6 envelope glycoprotein (Env) (HIV-1)
[9] = target: HIV-1 JRCSF envelope glycoprotein (Env) (HIV-1) (UniProt P20871)
[10] = target: HIV-1 MGRM-A-010 envelope glycoprotein (Env) (HIV-1)
[11] = target: HIV-1 MGRM-C-026 envelope glycoprotein (Env) (HIV-1)
[12] = target: HIV-1 NL43 envelope glycoprotein (Env) (HIV-1)
[13] = target: HIV-1 Env of isolate 92RW008 (HIV-1)
[14] = target: HIV-1 Env of isolate 92UG031 (HIV-1)
[15] = target: HIV-1 Env of isolate 92UG037 (HIV-1)
[16] = target: HIV-1 Env of isolate 92WR009 (HIV-1)
[17] = target: HIV-1 Env of isolate 92WR020 (HIV-1)
[18] = target: HIV-1 Env of isolate 92WR021 (HIV-1)
[19] = target: HIV-1 Env of isolate 92WR024 (HIV-1)
[20] = target: HIV-1 Env of isolate 92WR026 (HIV-1)
[21] = target: HIV-1 Env of isolate 93UG077 (HIV-1)
[22] = target: HIV-1 Env of isolate 93WR029 (HIV-1)
[23] = target: HIV-1 Env of isolate 94KE105 (HIV-1)
[24] = target: HIV-1 Env of isolate 94UG103 (HIV-1)
[25] = target: HIV-1 Env of isolate MGRM-A-001 (HIV-1)
[26] = target: HIV-1 Env of isolate MGRM-A-003 (HIV-1)
[27] = target: HIV-1 Env of isolate MGRM-A-004 (HIV-1)
[28] = target: HIV-1 Env of isolate MGRM-A-006 (HIV-1)
[29] = target: HIV-1 Env of isolate MGRM-A-007 (HIV-1)
[30] = target: HIV-1 Env of isolate MGRM-A-008 (HIV-1)
[31] = target: HIV-1 Env of isolate MGRM-A-009 (HIV-1)
[32] = target: HIV-1 Env of isolate MGRM-A-010 (HIV-1)
[33] = target: HIV-1 Env of isolate MGRM-A-012 (HIV-1)
[34] = target: HIV-1 Env of isolate MGRM-A-013 (HIV-1)
[35] = target: HIV-1 Env of isolate MGRM-A-014 (HIV-1)
[36] = target: HIV-1 Env of isolate MGRM-AE-001 (HIV-1)
[37] = target: HIV-1 Env of isolate MGRM-AE-002 (HIV-1)
[38] = target: HIV-1 Env of isolate VLGCA1 (HIV-1)

B1: PGT-130 (antibody, V domains shown)
VH: QVQLQESGPGLVKPAETLSLTCSVSGESINTGHYYWGWVRQVPGKGLEWIGHIHYTTAVLHNPSLKSRLTIKIYTLRNQITLRLSNVTAADTAVYHCVRSGGDILYYYEWQKPHWFSPWGPGIHVTVSS
VL: QSALTQPPSASGSLGQSVTISCNGTSSDIGGWNFVSWYQQFPGRAPRLIIFEVNKRPSGVPGRFSGSKSGNSASLTVSGLQSDDEGQYFCSSLFGRWDVVFGGGTKLTVL
For B1, the Median IC50 against viruses neutralized with an IC50 <50 µg/ml [1] was 0.17 µg/mL, the IC50 neutralization [2] was 1.12 µg/mL and the IC50 neutralization [3] was 0.014 µg/mL. For the same binder, the IC50 neutralization [4] was 0.0182 µg/mL, the IC50 neutralization [5] was over 10 µg/mL and the IC50 neutralization [6] was 0.0345 µg/mL. For the same binder, the IC50 neutralization [7] was over 10 µg/mL, the IC50 neutralization [8] was over 10 µg/mL and the IC50 neutralization [9] was 0.0089 µg/mL. It also gave an IC50 neutralization [10] of 0.0054 µg/mL, an IC50 neutralization [11] of 0.0173 µg/mL and an IC50 neutralization [12] of over 10 µg/mL.

B2: PGT-125 (antibody, V domains shown)
VH: QSQLQESGPRLVEASETLSLTCNVSGESTGACTYFWGWVRQAPGKGLEWIGSLSHCQSFWGSGWTFHNPSLKSRLTISLDTPKNQVFLKLTSLTAADTATYYCARFDGEVLVYNHWPKPAWVDLWGRGIPVTVSS
VL: QSALTQPPSASGSPGQSITISCNGTATNFVSWYQQFPDKAPKLIIFGVDKRPPGVPDRFSGSRSGTTASLTVSRLQTDDEAVYYCGSLVGNWDVIFGGGTTLTVL
In the case of B2, the Median IC50 against viruses neutralized with an IC50 <50 µg/ml [1] is reported as 0.03 µg/mL, the IC50 neutralization [2] is reported as 0.0214 µg/mL and the IC50 neutralization [3] is reported as 0.0028 µg/mL. The IC50 neutralization [4] was 0.0137 µg/mL, the IC50 neutralization [5] was 0.0262 µg/mL and the IC50 neutralization [6] was 0.0128 µg/mL. The IC50 neutralization [7] was 7.31 µg/mL, the IC50 neutralization [8] was 0.0359 µg/mL and the IC50 (µg/mL), pseudovirus neutralization [13] was 0.004 µg/mL. For the same binder, the IC50 (µg/mL), pseudovirus neutralization [14] was over 50 µg/mL, the IC50 (µg/mL), pseudovirus neutralization [15] was 0.005 µg/mL and the IC50 (µg/mL), pseudovirus neutralization [16] was 0.144 µg/mL. It also gave an IC50 (µg/mL), pseudovirus neutralization [17] of 0.004 µg/mL, an IC50 (µg/mL), pseudovirus neutralization [18] of 0.005 µg/mL and an IC50 (µg/mL), pseudovirus neutralization [19] of 35.5 µg/mL. The IC50 (µg/mL), pseudovirus neutralization [20] was 0.007 µg/mL, the IC50 (µg/mL), pseudovirus neutralization [21] was 0.012 µg/mL and the IC50 (µg/mL), pseudovirus neutralization [22] was over 50 µg/mL. For the same binder, the IC50 (µg/mL), pseudovirus neutralization [23] was 0.004 µg/mL, the IC50 (µg/mL), pseudovirus neutralization [24] was 0.008 µg/mL and the IC50 (µg/mL), pseudovirus neutralization [25] was 12.4 µg/mL. The IC50 (µg/mL), pseudovirus neutralization [26] was over 50 µg/mL, the IC50 (µg/mL), pseudovirus neutralization [27] was over 50 µg/mL and the IC50 (µg/mL), pseudovirus neutralization [28] was over 50 µg/mL. It also gave an IC50 (µg/mL), pseudovirus neutralization [29] of over 50 µg/mL, an IC50 (µg/mL), pseudovirus neutralization [30] of over 50 µg/mL and an IC50 (µg/mL), pseudovirus neutralization [31] of 0.009 µg/mL. The IC50 (µg/mL), pseudovirus neutralization [32] was 0.004 µg/mL, the IC50 (µg/mL), pseudovirus neutralization [33] was 0.177 µg/mL and the IC50 (µg/mL), pseudovirus neutralization [34] was 0.014 µg/mL. For the same binder, the IC50 (µg/mL), pseudovirus neutralization [35] was 13.9 µg/mL, the IC50 (µg/mL), pseudovirus neutralization [36] was 2.95 µg/mL and the IC50 (µg/mL), pseudovirus neutralization [37] was over 50 µg/mL. For the same binder, the IC50 (µg/mL), pseudovirus neutralization [38] was 0.078 µg/mL, the IC50 neutralization [9] was 0.006 µg/mL and the IC50 neutralization [10] was 0.0055 µg/mL. It also gave an IC50 neutralization [11] of 0.0106 µg/mL and an IC50 neutralization [12] of over 10 µg/mL.

B3: PGT-131 (antibody, V domains shown)
VH: QVQLQESGPGLVKPSETLSLTCTVSGDSINTGHHYWGWVRQVPGKGPEWIAHIHYNTAVLHNPALKSRVTISIFTLKNLITLSLSNVTAADTAVYFCVRSGGDILYYIEWQKPHWFYPWGPGILVTVSS
VL: QSALTQPPSASGSLGQSLTISCSGTGSDIGSWNFVSWYQQFPGRAPNLIIFEVNRRRSGVPDRFSGSKSGNTASLTVSGLRSEDEAEYFCSSLSGRWDIVFGGGTKVTVL
Binder B3 has a Median IC50 against viruses neutralized with an IC50 <50 µg/ml [1] of 0.08 µg/mL.

Source: US20200024330A1
